Results from US20240327503A1 (University of Texas, published 2024).

Target: spike protein of SARS-COV-2 WA1 live virus (SARS-CoV-2, UniProt P0DTC2 14-1273)
Experiment: cell-based or functional assay

B1: A7V3 (antibody, V domains shown)
VH: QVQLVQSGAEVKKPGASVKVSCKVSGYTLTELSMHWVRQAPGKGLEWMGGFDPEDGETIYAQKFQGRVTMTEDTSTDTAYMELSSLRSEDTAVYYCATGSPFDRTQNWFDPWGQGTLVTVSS
VL: QSVVTQPPSVSAAPGQKVTISCSGSSSNIGNNYVSWYQQLPGTAPKLLIYDNNKRPSGIPDRFSGSKSGTSATLGITGLQTGDEADYYCGTWDSSLSAVVFGGGTKLTVL
  IC50, live virus neutralization of SARS-CoV-2 WA1: 0.95 nM
